The results in this text go back to US20250250330A1 (REVOPSIS THERAPEUTICS, published 2025).

For experiment [1], the target named is T1, Recombinant human VEGF165 (Peprotech, Cat #100-20) (human, UniProt P15692-4 27-191).
T1 construct: Bought protein; also called rhVEGF165; rh VEGF165
Kind of experiment: ELISA; rhVEGF165 coated, anti-human IgG Fc-HRP detection. On the procedure: VEGF₁₆₅ was used to coat Corning 9017 medium binding plates. […] Donkey anti-human IgG Fcγ-HRP (Jackson ImmunoResearch Laboratories, Cat #709-035-098) was used for detection and visualized by TMB substrate. OD450 nm readings were measured by Victor 3 with PerkinElmer 1420 Multilabel Counter.

For experiment [2], the target named is T1, Recombinant human VEGF165 (Peprotech, …). Kind of experiment: ELISA; target coated at 1 ug/mL, anti-human IgG Fc-HRP detection. On the procedure:
Different target proteins were used to coat Corning 9017 medium binding plates at 1 μg/mL and 100 μl per well. Donkey anti-human IgG Fcγ-HRP was used for detection. OD450 nm readings were measured by Victor 3.

Experiment [3] has as its target T2, His-tagged recombinant human ANG-2 (AcroBiosystems, Cat #AN2-H52H4) (human, UniProt O15123 275-496).
T2 construct: also called rhANG-2; rhANG-2-His; not shown: His tag
T2 sequence (looked up): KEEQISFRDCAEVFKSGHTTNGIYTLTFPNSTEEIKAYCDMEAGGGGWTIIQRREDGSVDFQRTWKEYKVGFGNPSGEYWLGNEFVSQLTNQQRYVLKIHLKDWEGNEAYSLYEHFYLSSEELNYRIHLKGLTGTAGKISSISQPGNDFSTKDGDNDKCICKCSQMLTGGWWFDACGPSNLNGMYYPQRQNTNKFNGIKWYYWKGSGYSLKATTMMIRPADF
The experiment is described as follows: ELISA; rhANG-2 (AcroBiosystems) coated, anti-human IgG Fc-HRP detection. On the procedure: Donkey anti-human IgG Fcγ-HRP (Jackson ImmunoResearch Laboratories, Cat #709-035-098) was used for detection and visualized by TMB substrate. OD450 nm readings were measured by Victor 3 with PerkinElmer 1420 Multilabel Counter.

The target in experiment [4] is T3, rhPlGF-1 (Peprotech_100-06) (human, UniProt P49763-2 19-149).
T3 construct: Bought protein; also called rhPIGF-1; PIGF-1
T3 sequence (looked up): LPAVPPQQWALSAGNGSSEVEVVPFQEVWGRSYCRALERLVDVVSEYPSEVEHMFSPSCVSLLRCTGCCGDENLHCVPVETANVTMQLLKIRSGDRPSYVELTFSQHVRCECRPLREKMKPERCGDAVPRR
Kind of experiment: ELISA: rhPlGF-1_Peprotech coated at 1 ug/mL, RO-101_Sample 1 from 100 nM in 1:3 dilutions, detected with anti-human IgG Fc-gamma-HRP. On the procedure:
(§1) Third, the binding to rhPIGF-1 or rhPIGF-3 was tested in comparison with rhVEGF₁₆₅. Target proteins were used to coat Corning 9017 medium binding plates at 1 μg/mL and 100 μl per well. […] Donkey anti-human IgG Fcγ-HRP was used for detection. OD450 nm readings were measured by Victor 3.

The target of experiment [5] is T4, Recombinant human VEGF121 (Peprotech, Cat #100-20A) (human, UniProt P15692-9 27-147).
T4 construct: Bought protein; also called rhVEGF121; rh VEGF121
T4 sequence (looked up): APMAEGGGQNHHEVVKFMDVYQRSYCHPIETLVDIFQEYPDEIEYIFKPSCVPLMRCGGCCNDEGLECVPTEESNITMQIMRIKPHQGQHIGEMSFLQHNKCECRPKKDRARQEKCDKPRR
The experiment is described as follows: ELISA; rhVEGF121 coated at 1 ug/mL, anti-human IgG Fc-HRP detection (RO-101_Sample 1). On the procedure:
Donkey anti-human IgG Fcγ-HRP (Jackson ImmunoResearch Laboratories, Cat #709-035-098) was used for detection and visualized by TMB substrate. OD450 nm readings were measured by Victor 3 (PerkinElmer 1420 Multilabel Counter).

For experiment [6], the target named is T2, His-tagged recombinant human ANG-2 …. Kind of experiment: ELISA on rhANG-2; biotinylated anti-VpreB antibody and streptavidin-HRP detection; SgG format; anti-VpreB detection. On the procedure: SgG1 was diluted in blocking buffer at a starting concentration of 10 nM. Sab and scSv were diluted in blocking buffer at a starting concentration of 100 nM. They were then 1:3 serial diluted.

In experiment [7] the target is T5, Recombinant human ANG-2 (R&D Systems, Cat #623-AN-025/CF) (human, UniProt O15123 19-496, limits assumed).
T5 construct: also called rhANG-2
T5 sequence (looked up): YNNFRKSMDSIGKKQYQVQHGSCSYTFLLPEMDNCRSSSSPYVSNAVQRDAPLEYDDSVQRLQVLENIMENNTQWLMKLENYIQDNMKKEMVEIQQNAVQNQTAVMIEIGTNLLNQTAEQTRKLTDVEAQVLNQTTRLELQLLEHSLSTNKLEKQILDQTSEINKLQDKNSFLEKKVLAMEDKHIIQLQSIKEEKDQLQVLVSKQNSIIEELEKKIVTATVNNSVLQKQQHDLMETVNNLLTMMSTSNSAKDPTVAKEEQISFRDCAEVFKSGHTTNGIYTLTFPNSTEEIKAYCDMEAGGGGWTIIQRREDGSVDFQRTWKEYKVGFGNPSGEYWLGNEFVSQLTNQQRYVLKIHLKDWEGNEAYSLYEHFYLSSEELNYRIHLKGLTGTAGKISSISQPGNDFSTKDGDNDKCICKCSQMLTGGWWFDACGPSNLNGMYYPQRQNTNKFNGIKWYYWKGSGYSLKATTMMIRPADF
Kind of experiment: ELISA on rhANG-2 by an independent team; ratio of average EC50 against Faricimab.

Experiment [8] has as its target T1, Recombinant human VEGF165 (Peprotech, …). The experiment is described as follows: ELISA; target coated at 1 ug/mL, anti-human IgG Fc-HRP detection. As for the experimental part: as §1
The source holds these as a separate data set.

For experiment [9] the target is unchanged. Kind of experiment: ELISA on coated human VEGF-A (rhVEGF165).
Experiment [10] addresses T5, Recombinant human ANG-2 (R&D Systems, …). Kind of experiment: ELISA on rhANG-2 by an independent team; first of three runs by an independent team (average 0.0491 nM).

Several values for one entry are separate records, joined by “and”; a condition that tells them apart may be missing. Identical values can stand only once.

B1: RO-101 VEGF/ANG-2 bispecific surrobody (bispecific antibody, human IgG1, L234A L235A)
heavy 1: not shown
heavy 2: EVQLVESGGGLVKPGGSLRLSCAASGFTFSSYGMHWVRQAPGKGLEWVAGISADSGDKNYADSVKGRFTISRDNAKNSLYLQMNSLRAEDTAVYYCAKEFISWIYTFDYLDYWGQGTLVTVSSASTKGPSVFPLAPSSKSTSGGTAALGCLVKDYFPEPVTVSWNSGALTSGVHTFPAVLQSSGLYSLSSVVTVPSSSLGTQTYICNVNHKPSNTKVDKKVEPKSCDKTHTCPPCPAPEAAGGPSVFLFPPKPKDTLMISRTPEVTCVVVDVSHEDPEVKFNWYVDGVEVHNAKTKPREEQYNSTYRVVSVLTVLHQDWLNGKEYKCKVSNKALPAPIEKTISKAKGQPREPQVCTLPPSRDELTKNQVSLSCAVKGFYPSDIAVEWESNGQPENNYKTTPPVLDSDGSFFLVSKLTVDKSRWQQGNVFSCSVMHEALHNHYTQKSLSLSPG
light: QPVLHQPPAMSSALGTTIRLTCTLRNDHDIGVYSVYWYQQRPGHPPRFLLRYFSQSDKSQGPQVPPRFSGSKDVARNRGYLSISELQPEDEAMYYCAMGARSSVTHVFGSGTQLTVLSQPKATPSVTLFPPSSEELQANKATLVCLMNDFYPGILTVTWKADGTPITQGVEMTTPSKQSNNKYAASSYLSLTPEQWRSRRSYSCQVMHEGSTVEKTVAPAECS
notes: Format SgG1; also called Sample 1
On to B1, for which the EC50 in [1] was 0.0231 nM; in experiment [2], 0.0122 nM; in experiment [3] it was 0.0118 nM and 0.0138 nM; in experiment [5], 0.0146 nM; in [6] it was 0.0257 nM; in [8] it was 0.0162 nM. The EC50 in experiment [9] was found to be 0.0171 nM; in experiment [10], 0.0526 nM. Also, the binding result in experiment [4] was “no binding (tested: 100 nM (Log(nM) 2))”. In addition, the “fold better than Faricimab” value in experiment [7] is 58 fold.
